Reference: patent EP4755913A1 (Abiotech Pharmaceutical Co., Ltd, dated 2026)

Tests used:
[1] = target: Human C1q (Abcam, Cat No. AB282858) (human, UniProt P02745 23-245; P02746 28-253; P02747 29-245, limits assumed); test: BLI (Octet R8), antibody on FAB2G sensor, C1q in solution
[2] = target: T1, Human c-Met membrane protein on cells (human, UniProt P08581 25-932); test: flow cytometry on CHO-K1 cells overexpressing human c-Met
T1 construct: the same id is used for the endogenous c-Met of A549 and MKN45 cells in the functional rows; also called CHOK1-HGFR; CHO-K1-c-Met

[3] = target: T2, Recombinant human c-Met-HIS (Acrobiosystems, C-MET-H5227) (human, UniProt P08581 25-932); test: ELISA, C-MET-HIS coated, anti-human IgG Fc detection
T2 construct: Bought reagent; also called HGFR-his; HGFR-HIS; not shown: His tag

[4] = target: T3, HGFR-hfc (Acrobiosystems, Cat No. MET-H5256) (human, UniProt P08581 25-932); test: blocking ELISA, HGFR-hfc coated, HGF-HIS as competitor ligand, anti-His detection
T3 construct: Bought reagent; also called human HGFR protein; receptor c-Met; not shown: human Fc (hfc)

[5] = target: T2, Recombinant human c-Met-HIS …; test: BLI (Octet R8), affinity for c-Met-his compared with affinity for EGFR-HIS
[6] = target: T2, Recombinant human c-Met-HIS …; test: BLI (Octet R8), antibody captured on AHC2 sensor, c-Met-HIS in solution
[7] = target: T4, Human FcγRI (CD64) (ACRO, Cat No. FCA-H52H1) (human, UniProt P12314 16-288, limits assumed); test: BLI (Octet R8), receptor on HIS1K sensor, antibody in solution
T4 construct: His-tagged (CD64-His), immobilised on HIS1K sensors; tag not described; also called CD64-His

[8] = target: T5, Human FcγRIIIB (CD16b) (ACRO, Cat No. CDB-H5227) (human, UniProt O75015 17-200); test: as above
T5 construct: Immobilised on HIS1K (anti-His) sensors, so His-tagged; tag not described

[9] = target: T6, Human FcγRIIB/C (CD32b/c) (ACRO, Cat No. CDB-H5228) (human, UniProt P31994 46-217, limits assumed); test: as above
T6 construct: Immobilised on HIS1K (anti-His) sensors, so His-tagged; tag not described
T6 sequence (looked up): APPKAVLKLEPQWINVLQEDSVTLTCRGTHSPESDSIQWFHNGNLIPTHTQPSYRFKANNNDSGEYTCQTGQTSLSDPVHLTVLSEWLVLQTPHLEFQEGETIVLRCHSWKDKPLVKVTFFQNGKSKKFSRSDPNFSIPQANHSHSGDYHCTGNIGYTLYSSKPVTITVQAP

[10] = target: T7, Human FcγRIIIA (CD16a-F176) (ACRO, Cat No. CDA-H5220) (human, UniProt P08637 17-208); test: as above
T7 construct: Immobilised on HIS1K (anti-His) sensors, so His-tagged; tag not described

[11] = target: T8, Human FcγRIIIA (CD16a-V176) (ACRO, Cat No. CD8-H52H4) (human, UniProt P08637 17-208); test: as above
T8 construct: Immobilised on HIS1K (anti-His) sensors, so His-tagged; tag not described

[12] = target: T9, Recombinant human EGFR-HIS (Acrobiosystems, EGR-H5222) (human, UniProt P00533 25-645); test: BLI (Octet R8), antibody captured on AHC2 sensor, EGFR-His in solution
T9 construct: Bought reagent; not shown: His tag

[13] = target: T10, Human EGFR membrane protein on cells (human, UniProt P00533 25-645); test: flow cytometry on CHO-K1 cells overexpressing human EGFR
T10 construct: the same id is used for the endogenous EGFR of A549 and MKN45 cells in the functional rows; also called CHOK1-EGFR; CHO-K1-EGFR

[14] = target: T11, Human FcγRIIA (CD32a) (ACRO, Cat No. CDA-H5221) (human, UniProt P12318 36-218, limits assumed); test: BLI (Octet R8), antibody on ProA sensor, CD32a in solution
T11 construct: Used in solution against antibody on ProA sensors
T11 sequence (looked up): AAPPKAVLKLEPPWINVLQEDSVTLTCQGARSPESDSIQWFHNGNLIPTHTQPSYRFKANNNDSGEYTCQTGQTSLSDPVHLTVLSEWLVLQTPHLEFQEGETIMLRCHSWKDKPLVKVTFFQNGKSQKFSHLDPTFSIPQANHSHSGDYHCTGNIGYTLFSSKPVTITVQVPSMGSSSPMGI

[15] = target: T9, Recombinant human EGFR-HIS …; test: ELISA, EGFR-HIS coated, anti-human IgG Fc detection
[16] = target: T12, Human FcRn (ACRO, Cat No. FCM-H8286) (human, UniProt P55899 24-297; P61769 21-119, biotinylated (Bio-FcRn, site not stated)); test: BLI (Octet R8), biotinylated FcRn on SA sensor, antibody in solution
T12 construct: immobilised on SA (streptavidin) sensors; also called Bio-FcRn

[17] = target: T10, Human EGFR membrane protein on cells; test: cell-based or functional assay
[18] = target: T1, Human c-Met membrane protein on cells; test: cell-based or functional assay

Kd [1]: 11.2 nM | EC50 [2]: 0.266 µg/mL | EC50 [3]: 0.00822 µg/mL | IC50 [4]: 0.456 µg/mL | fold difference between the affinities of the two arms (c-Met-his against EGFR-HIS) [5]: > 20 fold | Kd [6]: 0.766 nM | koff [6]: 0.000213 s⁻¹ | kon [6]: 278000 M⁻¹ s⁻¹ | Kd [7]: 8.97 nM | Kd [8]: 14400 nM | Kd [9]: 1650 nM | Kd [10]: 330 nM | Kd [11]: 26.5 nM | Kd [12]: 21.9 nM | koff [12]: 0.0033 s⁻¹ | kon [12]: 151000 M⁻¹ s⁻¹ | EC50 [13]: 1.73 µg/mL | Kd [14]: 1520 nM | EC50 [15]: 1.3 µg/mL | Kd [16]: 228 nM
B1: Anti-c-Met/EGFR bispecific antibody BT461-DB (bispecific antibody, human IgG1, kappa)
light 1: DIQMTQSPSSLSASVGDRVTITCRSSQNIVHSNGNTYLDWYQQTPGKAPKLLIYKVSNRFSGVPSRFSGSGSGTDFTFTISSLQPEDIATYYCFQYSHVPWTFGQGTKLQITRTVAAPSVFIFPPSDEQLKSGTASVVCLLNNFYPREAKVQWKVDNALQSGNSQESVTEQDSKDSTYSLSSTLTLSKADYEKHKVYACEVTHQGLSSPVTKSFNRGEC
heavy 1: not shown
light 2: DIQMTQSPSSLSASVGDRVTITCSVSSSVSSIYLHWYQQKPGKAPKLLIYSTSNLASGVPSRFSGSGSGTDFTLTISSLQPEDFATYYCQVYSGYPLTFGGGTKVEIKRTVAAPSVFIFPPSDEQLKSGTASVVCLLNNFYPREAKVQWKVDNALQSGNSQESVTEQDSKDSTYSLSSTLTLSKADYEKHKVYACEVTHQGLSSPVTKSFNRGEC
heavy 2: not shown
notes: DuoBody format, assembled in vitro by Fab arm exchange from BT461-DB-EGFR and BT461-DB-c-Met; parents expressed in FUT8 knock-out CHO-K1 cells (no fucose); also called BT461 with Duobody structure
EC50 of Antibody-Mediated ADCC Killing Curves (ADCC Reporter Bioassay, CHOK1-EGFR target cells) [17]: 0.185 µg/mL | EC50 of Antibody-Mediated ADCC Killing Curves (ADCC Reporter Bioassay, CHOK1-c-Met target cells) [18]: 0.162 µg/mL
